Reference: PMC11160672 (bioRxiv, 2024)

B1: Acetyl-CoA carboxylase carboxyltransferase subunit AccD (enzyme, E. coli, UniProt P0A9Q5 1-304, looked up)
chain: MSWIERIKSNITPTRKASIPEGVWTKCDSCGQVLYRAELERNLEVCPKCDHHMRMTARNRLHSLLDEGSLVELGSELEPKDVLKFRDSKKYKDRLASAQKETGEKDALVVMKGTLYGMPVVAAAFEFAFMGGSMGSVVGARFVRAVEQALEDNCPLICFSASGGARMQEALMSLMQMAKTSAALAKMQERGLPYISVLTDPTMGGVSASFAMLGDLNIAEPKALIGFAGPRVIEQTVREKLPPGFQRSEFLIEKGAIDMIVRRPEMRLKLASILAKLMNLPAPNPEAPREGVVVPPVPDQEPEA
B2: Acetyl-CoA carboxylase carboxyltransferase subunit AccA (enzyme)
chain: MSLNFLDFEQPIAELEAKIDSLTAVSRQDEKLDINIDEEVHRLREKSVELTRKIFADLGAWQIAQLARHPQRPYTLDYVRLAFDEFDELAGDRAYADDKAIVGGIARLDGRPVMIIGHQKGRETKEKIRRNFGMPAPEGYRKALRLMQMAERFKMPIITFIDTPGAYPGVGAEERGQSEAIARNLREMSRLGVPVVCTVIGEGGSGGALAIGVGDKVNMLQYSTYSVISPEGCASILWKSADKAPLAAEAMGIIAPRLKELKLIDSIIPEPLGGAHRNPEAMAASLKAQLLADLADLDVLSTEDLKNRRYQRLMSYGYA

How the values were obtained:
Biotin carboxylase AccC = Biotin carboxylase AccC (E. coli, UniProt P24182 1-449); test: SEC
[1] = target: B2; test: cryo-EM structure

stoichiometry N (Biotin carboxylase AccC) | binding result [1] | Binder
~1 | binds | B1
~1 | – | B2
